29 sequences from the supplement of paper PMC9170038 can be followed below.

The data set has as its system MS2 coat protein. The experiment in a line: apparent KD of MS2 coat protein; designed switch direction (-1 OFF switch, 1 ON switch): -1; higher = weaker reporter binding. Put shortly: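 Transcription of designed RNA switches on Illumina chips was done by stalled E. coli RNA polymerase. SNAP-549-labelled MS2 coat protein was then titrated in doubling steps from 0.7 or 1.5 nM to 3 µM, with steps of 0.8–1.5 h at the lowest and 10–20 min at the highest concentration. The per-design median over clusters of curve-fitted normalised fluorescence is reported as apparent KD.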

Where [1] appears, read: Eterna round: R95, input ligand: FMN 200 uM.
Where [2] appears, read: Eterna round: R95, input ligand: microRNA oligo, concentration not stated.
Where [3] appears, read: Eterna round: R95, input ligand: none.
The mark [4] stands for this setting: input ligand: microRNA oligo, concentration not stated.

For the sequence “AGUACAUUCACGAAAGUGAAUGUACAAUAAGCUUGUGGAACAUGAGGAUCACCCAUGUCCUCAUAAGCUCGUCUUAU [Mat - Sensor v3 - Turn-off var 2 - D31] (puzzle: Sensor v3, turn-off variant 2)”, the “apparent KD of MS2 coat protein” value runs as follows: under setting [1], 16.1 nM; under setting [2], 68.7 nM; under setting [3], 14.6 nM.

Consider “AGUACCUGAGUACAAUGUAACAUGAGGAUCACCCAUGUAAUUGGGUGAGAACAAGCUCACCGUUCGUCUUAAAUAAA [JL turnoff v1 80] (Eterna round: R96, puzzle: Sensor v2, turn-off variant)”, for which the “apparent KD of MS2 coat protein” value is, setting by setting: (input ligand: FMN 200 uM) 485 nM; under setting [4], 55.3 nM; (input ligand: none) 501 nM.

For “AGUACUAACACGAAAGUGUUAGUACAAUAAGCUUGUGGAACAUGAGGAUCACCCAUGUCCUCAUAAGCUCGUCUUAU [JL-sv3-2.12 mat747 mod] (puzzle: Sensor v3, turn-off variant 2)”, the “apparent KD of MS2 coat protein” value reads like this: under setting [1], 16.8 nM; under setting [2], 71.4 nM; under setting [3], 16.9 nM.

With “AGUACUAACACGAAAGUGUUAGUACUAUAAGCUUGUGUUACAUGAGGAUCACCCAUGUCCUCAUAAGCUCGUCUUAU [JL-sv3-2.15 mat747 mod] (puzzle: Sensor v3, turn-off variant 2)”, the “apparent KD of MS2 coat protein” value reads like this: under setting [1], 86.4 nM; under setting [2], 31.8 nM; under setting [3], 115 nM.

Regarding “AGUACUAACACGAAAGUGUUAGUGCAAUAAGCUUGUGAAACAUGAGGAUCACCCAUGUCCUCAUAAGCUCGUCUUAU [salish99_TOv2_r3_039] (puzzle: Sensor v3, turn-off variant 2)”, the “apparent KD of MS2 coat protein” value came to 15.6 nM under setting [1], 582 nM under setting [2] and 16.2 nM under setting [3].

As for “AGUACUAACACGAAAGUGUUCGUACAAUAAGCUUGUGAAACAUGAGGAUCACCCAUGUCCUCAUAAGCUCGUCUUAU [salish99_TOv2_r3_037] (puzzle: Sensor v3, turn-off variant 2)”, the “apparent KD of MS2 coat protein” value is, setting by setting: under setting [1], 16.6 nM; under setting [2], 810 nM; under setting [3], 15.6 nM.

Take “AGUACUAACACGAGAGUGUUAGUACUAUAAGCUUGUGUUACAUGAGGAUCACCCAUGUCCUCAUAAGCUCGUCUUAA [Mat - Sensor v3 - Turn-off var 2 - D64] (puzzle: Sensor v3, turn-off variant 2)”: the “apparent KD of MS2 coat protein” value came to 33.3 nM under setting [1], 185 nM under setting [2] and 35.8 nM under setting [3].

Consider “AGUACUAACACGAUAGUGUUAGUACUAUAAGCUUGUGUUACAUGAGGAUCACCCAUGUCCUCAUAAGCUCGUCUUAU [Mat - Sensor v3 - Turn-off var 2 - D78] (puzzle: Sensor v3, turn-off variant 2)”, for which the “apparent KD of MS2 coat protein” value reads like this: under setting [1], 95.6 nM; under setting [2], 118 nM; under setting [3], 101 nM.

For the sequence “AGUACUAACACGGUUGUGUUAGUACAAUAAGCUUGUGAAACAUGAGGAUCACCCAUGUCCUCAUAAGCUCGUCUUAU [salish99_TOv2_r3_070] (Eterna round: R96, puzzle: Sensor v3, turn-off variant 2)”, the “apparent KD of MS2 coat protein” value came out at 15 nM (input ligand: FMN 200 uM), 464 nM under setting [4] and 17.3 nM (input ligand: none).

On to “AGUACUAACACGGUUGUGUUAGUACAAUAAGCUUGUGAAACAUGAGGAUCACCCAUGUCCUCAUAAGCUCGUCUUAU [salish99_TOv2_r3_070] (puzzle: Sensor v3, turn-off variant 2)”, for which the “apparent KD of MS2 coat protein” value by setting is: under setting [1], 16.1 nM; under setting [2], 954 nM; under setting [3], 15.1 nM.

In the case of “AGUAGUUCAGGAUAUGAUGUUGAGUACAUGAGGAUCACCCAUGUAGGUCCUGGAUUUGCAUCAGAAGGGAAUAACU [JR_Ex5_Sub084] (Eterna round: R97, puzzle: Exclusion 5)”, the “apparent KD of MS2 coat protein” value is, setting by setting: (input ligand: FMN 200 uM) 59 nM; (input ligand: none) 26.7 nM.

Take “AGUAUGUUAGGAUAUUCCAUUGCUGUCAGCUCGGCGUCACAGAAGAAGGGACAUGAGGAUCACCCAUGUUAGGC [Eternabot (L1) Solution 96] (Eterna round: R97, puzzle: Exclusion 4)”: the “apparent KD of MS2 coat protein” value reads like this: (input ligand: FMN 200 uM) 57.3 nM; (input ligand: none) 71.4 nM.

Take “AGUCAGGCGGUAGGAUAUCCAAACCGAGUGACCCUUACAUAACAUGAGGAUCACCCAUGUCGGUGGGAGAAGGGCCGUAAGGCA [Mat - Exclusion NG 2 - Mod of JL - D67] (Eterna round: R96, puzzle: Exclusion NG 2)”: the “apparent KD of MS2 coat protein” value by setting is: (input ligand: FMN 200 uM) 517 nM; under setting [4], 349 nM; (input ligand: none) 113 nM.

Take “AGUCCGUCAGGAUAUGCAAUUGUGGACAUGAGGAUCACCCAUGUAACGUGGGCAUGGUUUGUAGAAGGGACGUGCA [EX5 #92] (Eterna round: R97, puzzle: Exclusion 5)”: the “apparent KD of MS2 coat protein” value came out at 129 nM (input ligand: FMN 200 uM) and 95.3 nM (input ligand: none).

Regarding “AGUCGGUCAGGAUAUGCAGACGUAGACAUGAGGAUCACCCAUGUGACGUGGGCCUGGUUUGUAGAAGGGACGAGCA [EX5 #83] (Eterna round: R97, puzzle: Exclusion 5)”, the “apparent KD of MS2 coat protein” value (input ligand: FMN 200 uM) amounted to 30.2 nM and the “apparent KD of MS2 coat protein” value (input ligand: none) was found to be 19.3 nM.

As to “AGUCUGCGAGGAUAUACAUGAGGAUCACCCAUGUGCGAGAAACUAGUGAGGUCGAUUGGUAGAAGGCGCGGACA [Mat - Exclusion 3 - Mod of JL D87] (puzzle: Exclusion 3)”, the “apparent KD of MS2 coat protein” value by setting is: under setting [1], 34.7 nM; under setting [2], 200 nM; under setting [3], 356 nM.

Regarding “AGUGUGAGGCAGGAUAUGCAAUUUGUAAGUAAUGCAGAAGGGUCUACAUGAGGAUCACCCAUGUGUGCGGUUGA [Ex6 #11] (Eterna round: R97, puzzle: Exclusion 6)”, the “apparent KD of MS2 coat protein” value reads like this: (input ligand: FMN 200 uM) 447 nM; (input ligand: none) 246 nM.

With “AGUGUGUGGCAGGAUAUGCAAUUAAUAGGUGAAGCAGAAGGGUCUACAUGAGGAUCACCCAUGUGUGCGGUUGA [Ex6 #22] (Eterna round: R97, puzzle: Exclusion 6)”, the “apparent KD of MS2 coat protein” value reads like this: (input ligand: FMN 200 uM) 154 nM; (input ligand: none) 139 nM.

Regarding “AGUUAUUCAGGAUAUGGUGUGUUAUACAUGAGGAUCACCCAUGUGGGUCAUGGUUAGGCCUCAGAAGGGAAUGUUA [salish99_ex5_r4_125] (Eterna round: R97, puzzle: Exclusion 5)”, the “apparent KD of MS2 coat protein” value by setting is: (input ligand: FMN 200 uM) 796 nM; (input ligand: none) 1100 nM.

As for “AGUUCACAUGAGGAUCACCCAUGUGAGGAUAUGGUUUCGCUGGCCGUAGCCAGUGGAACCAGAAGGCGCAUGAU [Mat - Exclusion 1 - JL Mod - D14] (Eterna round: R97, puzzle: Exclusion 1)”, the “apparent KD of MS2 coat protein” value stood at 38.6 nM (input ligand: FMN 200 uM) and 34.5 nM (input ligand: none).

As for “AGUUGGCGAGGAUAUACAUGAGGAUCACCCAUGUGAGAGAUACUAGUGAGGUCGAUUGGUAGAAGGCGCUGACA [Mat - Exclusion 3 - Mod of JL D80] (puzzle: Exclusion 3)”, the “apparent KD of MS2 coat protein” value under setting [2] was 91.5 nM.

Turning to “AGUUGGCGAGGAUAUACAUGAGGAUCACCCAUGUGAGAGAUACUAGUGAGGUCGAUUGGUAGAAGGCGCUGACA [Mat X3R4 m19] (Eterna round: R97, puzzle: Exclusion 3)”, the “apparent KD of MS2 coat protein” value was found to be 70.8 nM (input ligand: FMN 200 uM) and 106 nM (input ligand: none).

For “AUAAAUAAGGAGGAUAUCGUAUCGGAAACGAUACGAGAAGGCCUAACAUGAGGAUCACCCAUGUUCCUUAAAUA [Mat - Exclusion 6 - Eli Mod - D62] (puzzle: Exclusion 6)”, the “apparent KD of MS2 coat protein” value runs as follows: under setting [1], 40.9 nM; under setting [2], 24.1 nM; under setting [3], 21.6 nM.

Take “AUAAAUCAUGUAGGAUAUGUGUGGCGAAGCUAUACAGAAGGACAUGAGGAUCACCCAUGUUCUUCCGUCUGCGUACAGACGGAA [11th something] (Eterna round: R96, puzzle: Exclusion NG 1)”: the “apparent KD of MS2 coat protein” value is, setting by setting: (input ligand: FMN 200 uM) 228 nM; under setting [4], 19.1 nM; (input ligand: none) 29 nM.

In the case of “AUAACAAGCUUUUUGCUCGUCGUAUAUGACGCUCGAGUCACAUGAGGAUCACCCAUGUCUUCCUGUUUGAUUGUUGA [JR_SV3TOV2_Sub056] (puzzle: Sensor v3, turn-off variant 2)”, the “apparent KD of MS2 coat protein” value worked out at 148 nM under setting [1], 122 nM under setting [2] and 177 nM under setting [3].

“AUAACUCUAGUCAGGAUAUGCGAGCAAGGAUUAGAGCAGAAGGGACAUGAGGAUCACCCAUGUGGUAGCUGGGU [Indiraa] (puzzle: Brourd's mod of Exclusion 4)”: the “apparent KD of MS2 coat protein” value was found to be 33.6 nM under setting [1], 47.3 nM under setting [2] and 77.5 nM under setting [3].

Take “AUAAGUGAUAAGGAUAUUACUAGCCUCGGCUAGUGAGAAGGUAUCACAUGAGGAUCACCCAUGUGUUCCAAUAA [Ex6/7-B2] (Eterna round: R97, puzzle: Exclusion 6)”: the “apparent KD of MS2 coat protein” value by setting is: (input ligand: FMN 200 uM) 297 nM; (input ligand: none) 119 nM.

Turning to “AUAAUGUGAGGAUAUCACGGCCCGAUGAGUACGGUAAACGAUGAGAAGGCACAUGAGGAUCACCCAUGUUCCUG [EX4 A.15] (Eterna round: R97, puzzle: Exclusion 4)”, the “apparent KD of MS2 coat protein” value (input ligand: FMN 200 uM) is 47.8 nM and the “apparent KD of MS2 coat protein” value (input ligand: none) was found to be 11.4 nM.

For “AUAAUGUGAGGAUAUCAGUCGACUAGCCUCGGCUAGUCGACUGAGAAGGCACAUGAGGAUCACCCAUGUGUUUC [E4/15-A2] (Eterna round: R97, puzzle: Exclusion 4)”, the “apparent KD of MS2 coat protein” value (input ligand: FMN 200 uM) stood at 43.9 nM and the “apparent KD of MS2 coat protein” value (input ligand: none) is 18.4 nM.
